Measurements reported in publication PMC10269683, “comCDE (Competence) Operon Is Regulated by CcpA in Streptococcus pneumoniae D39”.

Columns and labels:
CcpA [1] = target: T1, CcpA (Streptococcus pneumoniae D39, UniProt A0A0H2ZQ65 1-336); assay: EMSA; increasing CcpA; EMSA: 10 mM Tris-HCl pH 7.4, 1 mM DTT, 1 mM EDTA, 50 mM KCl, 5% glycerol, 50 ug/mL BSA, 0.05% NP-40, 20 min 37 C; footprinting binding 30 min 25 C; conditions: protein: recombinant; label: biotin; blunt
CcpA [2] = target: T1, CcpA; assay: EMSA; complex at 1 ug CcpA, 1 ng probe; unlabeled Np54 (100 ng) diminished complex; EMSA: 10 mM Tris-HCl pH 7.4, 1 mM DTT, 1 mM EDTA, 50 mM KCl, 5% glycerol, 50 ug/mL BSA, 0.05% NP-40, 20 min 37 C; footprinting binding 30 min 25 C; conditions: protein: recombinant; label: 5' biotin; blunt

| Binder | binding result (CcpA [1]) | binding result (CcpA [2]) |
| --- | --- | --- |
| Mut cre2 (dsDNA) DNA 1: ATATAATAGCAAAGCTGGGAATTTTCCCGGCTTTTTTCTTAAAAAAGTACACAACGATAGATATTAGGTAGAATGGAGA DNA 2: TCTCCATTCTACCTAATATCTATCGTTGTGTACTTTTTTAAGAAAAAAGCCGGGAAAATTCCCAGCTTTGCTATTATAT | binds | – |
| Mut cre1 (dsDNA) DNA 1: ATATAATAGATGCATGTCATGTGAATTCCACGTTGCATCTAATTAAGTACACTTTGGGAGAAAAAAATGACAGTTGAGA DNA 2: TCTCAACTGTCATTTTTTTCTCCCAAAGTGTACTTAATTAGATGCAACGTGGAATTCACATGACATGCATCTATTATAT | binds | – |
| P54 (cre3+cre4) (dsDNA) DNA 1: TAAGTTAGCTTACAAGAAAAAACATTTTAGGAGATTTTATTATGAAAAACACAG DNA 2: CTGTGTTTTTCATAATAAAATCTCCTAAAATGTTTTTTCTTGTAAGCTAACTTA | – | binds |
